The assay addresses T1, human FcRn (soluble human FcRn complexed with β2-microglobulin) (human, UniProt P61769 21-119, limits assumed).
T1 construct: also called hFcRn
Kind of assay: SPR, pH 7.0.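 Further: antibodies captured on a Protein L sensor chip with human FcRn injected as analyte, KD calculated from fitted association and dissociation rate constants.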 In general terms: SPR reads the build-up and loss of mass on a sensor chip optically.

Data on 55 molecules can be found in patent US20200199241A1 (Chugai, published 2020).

Changes are numbered by the printed parent chain.

T1 sequence (chain, as listed by the source limits assumed, chain 1 of 2): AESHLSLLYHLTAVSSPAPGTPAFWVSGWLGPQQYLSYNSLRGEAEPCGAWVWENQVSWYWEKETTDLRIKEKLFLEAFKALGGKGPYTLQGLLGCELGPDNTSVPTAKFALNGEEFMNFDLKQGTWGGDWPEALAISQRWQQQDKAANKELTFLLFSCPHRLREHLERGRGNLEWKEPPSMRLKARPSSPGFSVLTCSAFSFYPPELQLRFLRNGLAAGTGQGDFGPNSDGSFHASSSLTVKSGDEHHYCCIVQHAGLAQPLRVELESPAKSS
T1 sequence (P61769 21-119 limits assumed, chain 2 of 2): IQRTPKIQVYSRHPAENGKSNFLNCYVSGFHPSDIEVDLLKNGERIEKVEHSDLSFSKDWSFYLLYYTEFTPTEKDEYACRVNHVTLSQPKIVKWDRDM

B1: IgG1-F160 (antibody)
heavy: QVQLQESGPGLVKPSETLSLTCAVSGHSISHDHAWSWVRQPPGEGLEWIGFISYSGITNYNPSLQGRVTISRDNSKNTLYLQMNSLRAEDTAVYYCARSLARTTAMDYWGEGTLVTVSSASTKGPSVFPLAPSSKSTSGGTAALGCLVKDYFPEPVTVSWNSGALTSGVHTFPAVLQSSGLYSLSSVVTVPSSSLGTQTYICNVNHKPSNTKVDKKVEPKSCDKTHTCPPCPAPELLGGPSVFLFPPKPKDTLWISRTPEVTCVVVDVSHEDPEVKFNWYVDGVEVHNAKTKPREEQYNSTYRVVSVLTVLHQDWLNGKEYKCKVSNKALPAPIEKTISKAKGQPREPQVYTLPPSRDELTKNQVSLTCLVKGFYPSDIAVEWESNGQPENNYKTTPPVLDSDGSFFLYSKLTVDKSRWQQGNVFSCSVIHEALHYHYTQKSLSLSP
light: not shown
notes: EU numbering; copies: 2 + 2
One may read the Kd as the equilibrium constant for the complex coming apart. The molecule B1 showed a Kd of 850 nM.

B2: IgG1-F211 (antibody)
heavy: B1 heavy with W254Y, T309P, I430M
light: not shown
notes: EU numbering; copies: 2 + 2
In turn, B2 came in with a Kd of 240 nM.

B3: IgG1-F165 (antibody)
heavy: B1 heavy with D267A, I430M
light: not shown
notes: EU numbering; copies: 2 + 2
As to B3, the Kd stood at 290 nM.

B4: IgG1-F171 (antibody)
heavy: B1 heavy with D314A, I430M
light: not shown
notes: EU numbering; copies: 2 + 2
In turn, B4 registered a Kd of 190 nM.

B5: IgG1-F166 (antibody)
heavy: B1 heavy with T309Q, I430M
light: not shown
notes: EU numbering; copies: 2 + 2
As for B5, the Kd was determined as 150 nM.

B6: IgG1-F168 (antibody)
heavy: B1 heavy with D378A, I430M
light: not shown
notes: EU numbering; copies: 2 + 2
B6 displayed a Kd of 320 nM.

B7: IgG1-F225 (antibody)
heavy: B1 heavy with W254Y, L316R, I430M
light: not shown
notes: EU numbering; copies: 2 + 2
B7 had a dissociation constant Kd of 1500 nM.

B8: IgG1-F216 (antibody)
heavy: B1 heavy with W254Y, T309Y, I430M
light: not shown
notes: EU numbering; copies: 2 + 2
Regarding B8, the Kd was 230 nM.

B9: IgG1-F222 (antibody)
heavy: B1 heavy with W254Y, N317H, I430M
light: not shown
notes: EU numbering; copies: 2 + 2
For the molecule B9, the Kd amounted to 340 nM.

B10: IgG1-F226 (antibody)
heavy: B1 heavy with W254Y, L316K, I430M
light: not shown
notes: EU numbering; copies: 2 + 2
With B10, the equilibrium dissociation constant (Kd) was 540 nM.

B11: IgG1-F189 (antibody)
heavy: B1 heavy with W254Y, T309A, I430M
light: not shown
notes: EU numbering; copies: 2 + 2
In turn, B11 yielded a Kd of 190 nM.

B12: IgG1-F218 (antibody)
heavy: B1 heavy with W254Y, G387H, I430M
light: not shown
notes: EU numbering; copies: 2 + 2
Turning to B12, the Kd is 260 nM.

B13: IgG1-F212 (antibody)
heavy: B1 heavy with W254Y, T309R, I430M
light: not shown
notes: EU numbering; copies: 2 + 2
For the molecule B13, binding was characterised by a dissociation constant (Kd) of 680 nM.

B14: IgG1-F213 (antibody)
heavy: B1 heavy with W254Y, T309S, I430M
light: not shown
notes: EU numbering; copies: 2 + 2
For B14, the dissociation constant Kd was found to be 230 nM.

B15: IgG1-F194 (antibody)
heavy: B1 heavy with W254M, P259V, T309A, I430L
light: not shown
notes: EU numbering; copies: 2 + 2
The molecule B15 registered a Kd of 120 nM.

B16: IgG1-F176 (antibody)
heavy: B1 heavy with S241K, I430M
light: not shown
notes: EU numbering; copies: 2 + 2
B16 displayed a Kd of 290 nM.

B17: IgG1-F174 (antibody)
heavy: B1 heavy with E384A, I430M
light: not shown
notes: EU numbering; copies: 2 + 2
Take B17: the affinity, expressed as Kd, was 340 nM.

B18: IgG1-F221 (antibody)
heavy: B1 heavy with W254Y, D314H, I430M
light: not shown
notes: EU numbering; copies: 2 + 2
Regarding B18, binding was put at a Kd of 310 nM.

B19: IgG1-F201 (antibody)
heavy: B1 heavy with W254Y, T309D, I430M
light: not shown
notes: EU numbering; copies: 2 + 2
With B19, the Kd was 210 nM.

B20: IgG1-F167 (antibody)
heavy: B1 heavy with V305A, I430M
light: not shown
notes: EU numbering; copies: 2 + 2
As to B20, the dissociation constant Kd was determined as 290 nM.

B21: IgG1-F191 (antibody)
heavy: B1 heavy with W254M, P259L, T309A, I430L
light: not shown
notes: EU numbering; copies: 2 + 2
B21 gave a Kd of 160 nM.

B22: IgG1-F204 (antibody)
heavy: B1 heavy with W254Y, T309G, I430M
light: not shown
notes: EU numbering; copies: 2 + 2
B22 yielded an equilibrium dissociation constant (Kd) of 210 nM.

B23: IgG1-F178 (antibody)
heavy: B1 heavy with D272F, I430M
light: not shown
notes: EU numbering; copies: 2 + 2
With B23, the Kd was determined as 270 nM.

B24: IgG1-F179 (antibody)
heavy: B1 heavy with N327G, I430M
light: not shown
notes: EU numbering; copies: 2 + 2
B24 came in with a Kd of 310 nM.

B25: IgG1-F184 (antibody)
heavy: B1 heavy with W254M, P259V, I430L, Y436W
light: not shown
notes: EU numbering; copies: 2 + 2
Molecule B25 showed a Kd of 270 nM.

B26: IgG1-F175 (antibody)
heavy: B1 heavy with S426A, I430M
light: not shown
notes: EU numbering; copies: 2 + 2
B26 yielded a Kd of 270 nM.

B27: IgG1-F162 (antibody)
heavy: B1 heavy with I430Y
light: not shown
notes: EU numbering; copies: 2 + 2
B27 had a Kd of 160 nM.

B28: IgG1-F172 (antibody)
heavy: B1 heavy with K319A, I430M
light: not shown
notes: EU numbering; copies: 2 + 2
Consider B28, for which the Kd was found to be 220 nM.

B29: IgG1-F183 (antibody)
heavy: B1 heavy with W254M, P259T, I430L, Y436W
light: not shown
notes: EU numbering; copies: 2 + 2
The molecule B29 returned a Kd of 220 nM.

B30: IgG1-F223 (antibody)
heavy: B1 heavy with W254Y, K362H, I430M
light: not shown
notes: EU numbering; copies: 2 + 2
B30 registered a Kd of 270 nM.

B31: IgG1-F169 (antibody)
heavy: B1 heavy with V307A, I430M
light: not shown
notes: EU numbering; copies: 2 + 2
Take B31: binding was characterised by a dissociation constant (Kd) of 290 nM.

B32: IgG1-F227 (antibody)
heavy: B1 heavy with W254Y, N288E, I430M
light: not shown
notes: EU numbering; copies: 2 + 2
B32 yielded a Kd of 120 nM.

B33: IgG1-F196 (antibody)
heavy: B1 heavy with W254M, P259A, T309Q, I430L
light: not shown
notes: EU numbering; copies: 2 + 2
B33 displayed a Kd of 35 nM.

B34: IgG1-F177 (antibody)
heavy: B1 heavy with S300G, I430M
light: not shown
notes: EU numbering; copies: 2 + 2
B34 gave a Kd of 280 nM.

B35: IgG1-F195 (antibody)
heavy: B1 heavy with W254M, P259L, T309Q, I430L
light: not shown
notes: EU numbering; copies: 2 + 2
In the case of B35, the Kd worked out at 56 nM.

B36: IgG1-F210 (antibody)
heavy: B1 heavy with W254Y, T309N, I430M
light: not shown
notes: EU numbering; copies: 2 + 2
Molecule B36 came in with a Kd of 290 nM.

B37: IgG1-F220 (antibody)
heavy: B1 heavy with W254Y, Q313H, I430M
light: not shown
notes: EU numbering; copies: 2 + 2
For B37, the affinity, expressed as Kd, was 250 nM.

B38: IgG1-F219 (antibody)
heavy: B1 heavy with W254Y, T291H, I430M
light: not shown
notes: EU numbering; copies: 2 + 2
Take B38: binding was put at a Kd of 250 nM.

B39: IgG1-F190 (antibody)
heavy: B1 heavy with W254Y, T309Q, I430M
light: not shown
notes: EU numbering; copies: 2 + 2
Turning to B39, the affinity, expressed as Kd, was 110 nM.

B40: IgG1-F215 (antibody)
heavy: B1 heavy with W254Y, T309W, I430M
light: not shown
notes: EU numbering; copies: 2 + 2
On to B40, for which the Kd turned out to be 96 nM.

B41: IgG1-F164 (antibody)
heavy: B1 heavy with P240A, I430M
light: not shown
notes: EU numbering; copies: 2 + 2
In turn, B41 gave a Kd of 370 nM.

B42: IgG1-F198 (antibody)
heavy: B1 heavy with W254M, P259V, T309Q, I430L
light: not shown
notes: EU numbering; copies: 2 + 2
B42: the affinity, expressed as Kd, was 48 nM.

B43: IgG1-F173 (antibody)
heavy: B1 heavy with E382A, I430M
light: not shown
notes: EU numbering; copies: 2 + 2
B43 registered an equilibrium dissociation constant (Kd) of 770 nM.

B44: IgG1-F209 (antibody)
heavy: B1 heavy with W254Y, T309M, I430M
light: not shown
notes: EU numbering; copies: 2 + 2
The molecule B44 showed a Kd of 130 nM.

B45: IgG1-F208 (antibody)
heavy: B1 heavy with W254Y, T309L, I430M
light: not shown
notes: EU numbering; copies: 2 + 2
B45 returned a Kd of 390 nM.

B46: IgG1-F192 (antibody)
heavy: B1 heavy with W254M, P259A, T309A, I430L
light: not shown
notes: EU numbering; copies: 2 + 2
For the molecule B46, the Kd turned out to be 110 nM.

B47: IgG1-F193 (antibody)
heavy: B1 heavy with W254M, P259T, T309A, I430L
light: not shown
notes: EU numbering; copies: 2 + 2
The molecule B47 came in with a Kd of 85 nM.

B48: IgG1-F203 (antibody)
heavy: B1 heavy with W254Y, T309F, I430M
light: not shown
notes: EU numbering; copies: 2 + 2
Regarding B48, the affinity, expressed as Kd, was 240 nM.

B49: IgG1-F170 (antibody)
heavy: B1 heavy with Q313A, I430M
light: not shown
notes: EU numbering; copies: 2 + 2
The molecule B49 came in with a Kd of 170 nM.

B50: IgG1-F163 (antibody)
heavy: B1 heavy with I430F
light: not shown
notes: EU numbering; copies: 2 + 2
As to B50, binding was characterised by a dissociation constant (Kd) of 420 nM.

B51: IgG1-F206 (antibody)
heavy: B1 heavy with W254Y, T309I, I430M
light: not shown
notes: EU numbering; copies: 2 + 2
Turning to B51, the Kd was 230 nM.

B52: IgG1-F214 (antibody)
heavy: B1 heavy with W254Y, T309V, I430M
light: not shown
notes: EU numbering; copies: 2 + 2
Regarding B52, the affinity, expressed as Kd, was 170 nM.

B53: IgG1-F182 (antibody)
heavy: B1 heavy with W254M, P259A, I430L, Y436W
light: not shown
notes: EU numbering; copies: 2 + 2
B53 registered a Kd of 66 nM.

B54: IgG1-F217 (antibody)
heavy: B1 heavy with W254Y, K336L, I430M
light: not shown
notes: EU numbering; copies: 2 + 2
Regarding B54, the Kd worked out at 230 nM.

B55: IgG1-F205 (antibody)
heavy: B1 heavy with W254Y, T309H, I430M
light: not shown
notes: EU numbering; copies: 2 + 2
As to B55, binding was characterised by a dissociation constant (Kd) of 200 nM.
